Measured values as given in publication PMC6232143.

Legend:
[1] = biological target: His6.TssA1^B CTD H12-H14 (303-358) (B. cenocepacia); assay: crystal structure; His6.TssA1^B CTD H12-H14 (303-358), 2.35 Å, two molecules in the asymmetric unit
[2] = biological target: His6.TssA2^A Nt2 (223-387) (A. hydrophila); assay: crystal structure; His6.TssA2^A Nt2 (223-387), ethyl mercury phosphate derivative, 2.16 Å, two monomers in the asymmetric unit
[3] = biological target: His6.TssA2^A Nt2-CTD (223-478) (A. hydrophila); assay: SEC-MALS; S200 10/300 column, 50 mM Tris.HCl (pH 8.0), 500 mM NaCl, ~20 °C; 4.5-6.8 mg/ml
[4] = biological target: His6.TssA2^A Nt2-CTD (223-478) (A. hydrophila); assay: crystal structure; His6.TssA2^A Nt2-CTD (223-478), 3.13 Å, ten subunits in the asymmetric unit
[5] = biological target: TssA1^B CTD fragment (303-347) (B. cenocepacia); assay: crystal structure; TssA1^B CTD fragment 303-347 (clipped 303-373 construct), 1.78 Å, spacegroup I222
[6] = biological target: His6.TssA2^A (1-478) (A. hydrophila); assay: SEC-MALS; S200 10/300 column, 50 mM Tris.HCl (pH 8.0), 500 mM NaCl, ~20 °C; 4.5-6.8 mg/ml
[7] = biological target: TssA2^A Nt1-Nt2.His6 (231-374) (A. hydrophila); assay: crystal structure; TssA2^A Nt2 (231-374) from the Nt1-Nt2.His6 construct, 1.76 Å, four molecules in the asymmetric unit
[8] = biological target: TssA1^B CTD (303-373) (B. cenocepacia); assay: crystal structure; TssA1^B CTD (303-373), 3.08 Å, spacegroup I222, eight monomers in the asymmetric unit
[9] = biological target: His6.TssA2^A CTD (381-478) (A. hydrophila); assay: SEC-MALS; S200 10/300 column, 50 mM Tris.HCl (pH 8.0), 500 mM NaCl, ~20 °C; 4.5-6.8 mg/ml
[10] = biological target: Native TssA1^B (1-373) (B. cenocepacia); assay: SEC-MALS; Superose-6 10/300 column, 10 mM phosphate buffer (pH 7.4), 2.7 mM KCl, 137 mM NaCl, ~20 °C

Question: Which stoichiometry N [1] does the source give for “His6.TssA1^B CTD H12-H14 (303-358) (domain or fragment)” here?
Answer: The stoichiometry N was 2.

Question: For “His6.TssA2^A Nt2 (223-387) (domain or fragment)”, which stoichiometry N [2] is on record?
Answer: The stoichiometry N was 2.

Question: With “His6.TssA2^A Nt2-CTD (223-478) (domain or fragment)” as the substance, how does the stoichiometry N [3] read?
Answer: Its stoichiometry N is 10.

Question: And the stoichiometry N [4]?
Answer: Its stoichiometry N is 10.

Question: With “TssA1^B CTD fragment (303-347) (domain or fragment)” as the substance, how does the stoichiometry N [5] read?
Answer: Its stoichiometry N is 2.

Question: Which stoichiometry N [6] does the source give for His6.TssA2^A (1-478) (natural protein) here?
Answer: Its stoichiometry N is 10.

Question: “TssA2^A Nt1-Nt2.His6 (231-374) (domain or fragment)” was tested. Which stoichiometry N [7] did it give?
Answer: Its stoichiometry N is 2.

Question: For “TssA1^B CTD (303-373) (domain or fragment)”, which stoichiometry N [8] is on record?
Answer: Its stoichiometry N is 32 subunits.

Question: Which stoichiometry N [9] does the source give for “His6.TssA2^A CTD (381-478) (domain or fragment)” here?
Answer: The stoichiometry N was 10.

Question: For “Native TssA1^B (1-373) (natural protein)”, which stoichiometry N [10] is on record?
Answer: The stoichiometry N was 30 subunits.
